The Kd is the equilibrium constant for the complex coming apart.

The target of assay [1] is T1, AIP-4 (S. aureus IV native cyclic signaling peptide) (Staphylococcus aureus). The assay is described as follows: cell-based or functional assay.
Assay [2] has as its target T1, AIP-4 (S. aureus IV native cyclic …). The assay is described as follows: competition ELISA on AP4-BSA. For orientation: ELISA stands for enzyme-linked immunosorbent assay.
The target in assay [3] is T2, AIP-1 (S. aureus I native cyclic signaling peptide) (Staphylococcus aureus). The assay is described as follows: competition ELISA on AP4-BSA.
The target in assay [4] is T1, AIP-4 (S. aureus IV native cyclic …). The assay is described as follows: competition ELISA on AP4-BSA. This is another data set of the same source.
The target in assay [5] is T2, AIP-1 (S. aureus I native cyclic …). The assay is described as follows: competition ELISA on AP1-BSA.
Assay [6] deals with T1, AIP-4 (S. aureus IV native cyclic …). The assay is described as follows: competition ELISA on AP4-BSA, tested 5 different times.

B1: AP4-24H11 (antibody, V domains shown)
VH: EVKPQESGPGLVKPSQSLSLTCTVTGYSITSNYAWNWIRQFPGNKLEWMGFISSYGTTTYNPSLKSRFSITRDTSKNQFFLQLHSVTIEDTGTYFCTREGDYWGQGTTLTVSS
VL: DIVMTQATLSLPVSLGDQASISCRSSQRLVPSNGNIYLHWFLQKPGQSPKLLIYKLSSRFSGVPDRFSGSGSGTDFTLKISRVESEDLGIYFCSQTTHVPYTFGGGTKLEIK
With B1, in assay [1], the Real-Time PCR fold-change of eta mRNA in RN4850 was -8.1 fold, the Real-Time PCR fold-change of hla mRNA in RN4850 is -5.2 fold, the Real-Time PCR fold-change of rnaIII mRNA in RN4850 was -77 fold and the Real-Time PCR fold-change of spa mRNA in RN4850 amounted to 5.7 fold. For the same molecule, in assay [1], the rnaIII transcriptional level in S. aureus RN4850 during stationary growth phase (RT-PCR) is > 50 fold. In assay [2], this molecule registered a dissociation constant Kd of 90 nM. Moreover, the dissociation constant (Kd) in assay [3] is 5000 nM. Further, in assay [4], the dissociation constant (Kd) came to 98 nM.

B2: AP1-15B4 (antibody, V domains shown)
VH: EVHLVESGGDLVKPGGSLKLSCAASGFAFSDFAMSWVRQTPEKRLEWVAIIKSDDSYTYYPDSVRDRFTISRDNARNTLYLQMTSLRSEDTALYYCTKIYDAYFYAMDYWGQGTSVTVSS
VL: DIVRTQSPLSLSVSLGDQASISCRSSQSLLHSNGNTYLHWYLQKPGQSPKLLIYKVSNRFSGVPDRFSGSGSGTDFTLKISILEAEDLGIYFCSQSTHFPTFGGGTKLEIK
In the case of B2, in assay [5], the dissociation constant Kd came to 800 nM. That is a sub-micromolar value.

B3: AP4-29E10 (antibody, V domains shown)
VH: EVQLQQSGPELEKPGASVKISCKASGHSFTGYNMNWVKQSNDKSLEWIGNIAPYYGVTAYNQKFKGKATLTGDKSSSTAYMQLKSLASEDSAVYYCVLDTSGYASWGQGTLVTVSA
VL: DIVMTQATASLTVSLGQRATISCRASKSVSTSGYSYMHWYQQKPGQPPKLLIYLASNLESGVPARFSGSGSGTDFTLNIHPVEEEDAATYYCQHSREVPYTFGGGTKLELK
With B3, the figures for the dissociation constant (Kd) in assay [2], in assay [3] and in assay [6] were 24 nM, 3000 nM and 2 to 110 nM, respectively.

The values are drawn from patent US9394371.
